According to PMC6916501 (The Journal of Biological Chemistry, 2019):

B1: E10 phage clone (scFv displayed on M13 phage) (scFv, V domains shown)
VH: EVQLVESGGGLVQPGGSLRLSCAASGFNINNTYIHWVRQAPGKGLEWVASIYPTDGYTRYADSVKGRFTISADTSKNTAYLQMNSLRAEDTAVYYCSRTYYSYYSAMDVWGQGTLVTVSS
VL: DIQMTQSPSSLSASVGDRVTITCRASQDVNTAVAWYQQKPGKAPKLLIYSASFLYSGVPSRFSGSRSGTDFTLTISSLQPEDFATYYCQQSYYSPPTFGQGTKVEIK
notes: scFv from the first library on the humanized 4D5 framework (CDRs L3, H1, H2, H3 varied); source: phage display, amplified in SS320 E. coli with M13K07 helper phage
B2: E10 scFv with C-terminal FLAG tag (scFv, V domains shown)
VH: EVQLVESGGGLVQPGGSLRLSCAASGFNINNTYIHWVRQAPGKGLEWVASIYPTDGYTRYADSVKGRFTISADTSKNTAYLQMNSLRAEDTAVYYCSRTYYSYYSAMDVWGQGTLVTVSS
VL: DIQMTQSPSSLSASVGDRVTITCRASQDVNTAVAWYQQKPGKAPKLLIYSASFLYSGVPSRFSGSRSGTDFTLTISSLQPEDFATYYCQQSYYSPPTFGQGTKVEIK
notes: as the scFv of m19; source: E. coli, produced by AxioMx
B3: clone 7 phage clone (scFv displayed on M13 phage) (scFv, V domains shown)
VH: EVQLVESGGGLVQPGGSLRLSCAASGFNVWSYGIHWVRQAPGKGLEWVAGVTPDGSYTYYADSVKGRFTISADTSKNTAYLQMNSLRAEDTAVYYCSRSYGWAMDYWGQGTLVTVSS
VL: DIQMTQSPSSLSASVGDRVTITCRASQDVNTAVAWYQQKPGKAPKLLIYSASFLYSGVPSRFSGSRSGTDFTLTISSLQPEDFATYYCQQQYAYTPITFGQGTKVEIK
notes: scFv from the second library on the humanized 4D5 framework (CDRs L2, L3, H1, H2, H3 varied); also called cl; source: phage display, amplified in SS320 E. coli with M13K07 helper phage
B4: clone 7 scFv with C-terminal FLAG tag (scFv, V domains shown)
VH: EVQLVESGGGLVQPGGSLRLSCAASGFNVWSYGIHWVRQAPGKGLEWVAGVTPDGSYTYYADSVKGRFTISADTSKNTAYLQMNSLRAEDTAVYYCSRSYGWAMDYWGQGTLVTVSS
VL: DIQMTQSPSSLSASVGDRVTITCRASQDVNTAVAWYQQKPGKAPKLLIYSASFLYSGVPSRFSGSRSGTDFTLTISSLQPEDFATYYCQQQYAYTPITFGQGTKVEIK
notes: as the scFv of m22; also called cl; source: E. coli, produced by AxioMx

What was measured:
[1] = biological target: T1, WT β-catenin_(41–49) peptide on HLA-A3 of T2A3 cells (Homo sapiens, HLA-A*03:01, UniProt P04439;P61769); assay: flow cytometry on cells; T2A3 cells pulsed with peptide and β2-microglobulin, stained with ~1 × 10^10 phage for 1 h on ice; anti-M13 and PE anti-rabbit; settings: partners not purified
T1 construct: HLA-A3 stably transfected in T2A3 cells; human β2-microglobulin (ProSpec) added at pulsing; β-catenin amino acids 41-49; also called WT peptide-pulsed T2A3 cells; copies: + +

[2] = biological target: T1, WT β-catenin_(41–49) peptide on HLA-A3 …; assay: flow cytometry on cells; T2A3 cells pulsed with peptide and β2-microglobulin, stained with 1 μg scFv in 100 μl for 1 h on ice; PE anti-DYKDDDDK; settings: one partner purified

| Binder | binding result [1] | binding result [2] |
| --- | --- | --- |
| B1 | no binding | – |
| B2 | – | no binding |
| B3 | no binding | – |
| B4 | – | no binding |
